This data set concerns the target SARS-CoV-2 nucleocapsid protein (NP), full length (SARS-CoV-2, UniProt P0DTC9 1-419). The data set can be described thus: BLI.

By Kd is commonly meant the concentration at which binding is half-saturated. Low readings indicate a tighter complex, high ones a looser complex.

B1: 11-mer 5' TRS-derived RNA (ssRNA)
RNA: UCUAAACGAAC
On to B1, for which binding was characterised by a dissociation constant (Kd) of 3.83 ± 0.04 nM.

The values are drawn from PMC12082725.
